The values that follow come from patent US9433687B2, “Anti-Notch3 antibodies and antibody-drug conjugates” (Pfizer Inc., priority 2012, dated 2016).

Several values for one entry are separate records, joined by “and”; a condition that tells them apart may be missing. Identical values can stand only once.

In experiment [1] the target is T1, cell surface Notch3 on OVCAR3 cells (Homo sapiens, UniProt Q9UM47).
T1 construct: Notch3 endogenously expressing cells MDA-MB-468, HCC2429 and OVCAR3; endogenous in cells; host or cells: OVCAR3
T1 sequence (Q9UM47 40-2321): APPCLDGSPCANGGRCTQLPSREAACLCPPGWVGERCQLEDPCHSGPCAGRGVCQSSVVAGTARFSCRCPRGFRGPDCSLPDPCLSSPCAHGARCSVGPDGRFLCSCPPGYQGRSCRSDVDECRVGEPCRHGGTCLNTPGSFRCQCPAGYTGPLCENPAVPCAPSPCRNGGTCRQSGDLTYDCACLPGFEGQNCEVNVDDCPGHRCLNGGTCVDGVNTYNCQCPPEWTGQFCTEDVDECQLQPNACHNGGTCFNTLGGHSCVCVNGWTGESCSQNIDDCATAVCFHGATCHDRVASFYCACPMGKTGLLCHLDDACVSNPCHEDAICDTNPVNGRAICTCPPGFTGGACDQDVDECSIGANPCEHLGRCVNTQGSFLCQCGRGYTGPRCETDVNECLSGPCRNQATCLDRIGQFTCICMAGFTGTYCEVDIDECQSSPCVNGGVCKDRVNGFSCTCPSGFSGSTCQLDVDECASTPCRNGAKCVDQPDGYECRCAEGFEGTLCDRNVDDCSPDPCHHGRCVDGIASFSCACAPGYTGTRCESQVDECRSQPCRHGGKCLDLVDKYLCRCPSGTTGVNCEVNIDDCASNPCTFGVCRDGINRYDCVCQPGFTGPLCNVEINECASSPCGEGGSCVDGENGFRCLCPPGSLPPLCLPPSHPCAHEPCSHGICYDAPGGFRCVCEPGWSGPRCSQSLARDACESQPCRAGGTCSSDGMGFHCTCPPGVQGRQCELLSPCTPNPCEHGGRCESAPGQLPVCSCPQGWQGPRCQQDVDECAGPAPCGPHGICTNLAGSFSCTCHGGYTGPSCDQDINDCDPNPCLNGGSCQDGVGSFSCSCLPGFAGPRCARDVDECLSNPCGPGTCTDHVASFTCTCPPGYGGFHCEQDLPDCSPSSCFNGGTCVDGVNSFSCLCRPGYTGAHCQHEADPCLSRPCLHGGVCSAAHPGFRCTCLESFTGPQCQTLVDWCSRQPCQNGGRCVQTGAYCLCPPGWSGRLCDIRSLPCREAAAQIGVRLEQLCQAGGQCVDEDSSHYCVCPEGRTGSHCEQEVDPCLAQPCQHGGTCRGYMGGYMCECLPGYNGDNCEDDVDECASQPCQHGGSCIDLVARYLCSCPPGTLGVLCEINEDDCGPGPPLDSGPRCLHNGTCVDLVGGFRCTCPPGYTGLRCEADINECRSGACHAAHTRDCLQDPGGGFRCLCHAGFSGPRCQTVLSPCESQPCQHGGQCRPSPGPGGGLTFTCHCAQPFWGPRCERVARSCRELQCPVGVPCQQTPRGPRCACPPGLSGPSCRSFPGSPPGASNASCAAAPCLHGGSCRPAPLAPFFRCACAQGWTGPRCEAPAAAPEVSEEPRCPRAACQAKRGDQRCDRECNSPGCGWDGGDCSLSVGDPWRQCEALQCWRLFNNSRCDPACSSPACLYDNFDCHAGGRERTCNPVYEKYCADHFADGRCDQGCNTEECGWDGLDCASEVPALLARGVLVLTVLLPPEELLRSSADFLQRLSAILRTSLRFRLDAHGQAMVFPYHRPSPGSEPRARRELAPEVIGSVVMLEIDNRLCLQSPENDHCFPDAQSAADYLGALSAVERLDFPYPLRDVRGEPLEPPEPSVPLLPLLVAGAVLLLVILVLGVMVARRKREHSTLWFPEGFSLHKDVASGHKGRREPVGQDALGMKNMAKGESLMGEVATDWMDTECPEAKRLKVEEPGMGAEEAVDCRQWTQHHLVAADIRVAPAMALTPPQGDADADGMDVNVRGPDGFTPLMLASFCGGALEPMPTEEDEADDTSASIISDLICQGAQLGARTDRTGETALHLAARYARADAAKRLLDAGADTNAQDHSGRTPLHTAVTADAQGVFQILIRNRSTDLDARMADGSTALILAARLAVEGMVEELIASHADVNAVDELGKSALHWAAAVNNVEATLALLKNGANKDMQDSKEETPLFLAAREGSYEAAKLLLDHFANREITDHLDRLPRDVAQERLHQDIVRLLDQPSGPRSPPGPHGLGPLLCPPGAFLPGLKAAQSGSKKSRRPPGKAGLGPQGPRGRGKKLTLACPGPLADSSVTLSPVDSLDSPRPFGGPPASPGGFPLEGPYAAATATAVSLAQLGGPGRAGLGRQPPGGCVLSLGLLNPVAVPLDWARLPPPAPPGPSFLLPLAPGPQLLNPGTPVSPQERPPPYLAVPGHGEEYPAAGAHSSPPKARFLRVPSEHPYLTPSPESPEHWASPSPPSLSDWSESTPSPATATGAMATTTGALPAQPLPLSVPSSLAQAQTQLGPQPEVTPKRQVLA
The experiment in a line: Cell-based ELISA, OVCAR3 cells. The conditions noted are these: Table 29; LB = lacked binding. A general note: An ELISA detects its analyte on a solid surface through an enzyme-linked reagent.

The target in experiment [2] is T2, full-length human Notch3 expressed on the cell surface of U2OS/hNotch3 cells (Homo sapiens, UniProt Q9UM47).
T2 construct: U-2 OS cells stably over-expressing human or mouse full length Notch3 protein on cell surface; expressed in transfected cells; host or cells: U-2 OS (human osteosarcoma)
T2 sequence (Q9UM47 40-2321): as above
The experiment in a line: Cell-based ELISA, U2OS/hNotch3 cells. The conditions noted are these: Table 29; two value columns; LB = lacked binding. The procedure: Humanized hu28 and hu75, and rat-human chimeric, ch28 and ch75, anti-Notch3 antibodies were screened for cell surface Notch3 binding in a cell-based ELISA. U-2 OS cells stably over-expressing human or mouse full length Notch3 protein on cell surface (hereinafter U2OS/hNotch3 and U2OS/mNotch3, respectively) were plated at 50,000 cells/well in 96 well plates (white opaque, BD/VWR) the day before ELISA assay. On the day of the ELISA, culture media was removed from wells and serially diluted (1:3 in blocking buffer) antibody solutions were applied to the plate. Plates were incubated at room temperature for 2 hours before being washed with PBS-Mg/Ca. HRP-conjugated secondary antibody was then applied and incubated with cells for 1 hour as described above for recombinant protein ELISA. Plates were washed with PBS-Mg/Ca before being developed with Pico-Chemiluminescent developing kit (Thermal Scientific), and chemiluminescence measurements were performed per manufacturer's instructions. Data plotting and analyses were performed with Microsoft Excel and Graphpad-Prism software.
Unconjugated anti-Notch3 antibodies, anti-Notch3 ADCs and a negative control antibody (huNeg8.8) were screened for cell surface binding activity to Notch3 expressing cell lines in a cell-based ELISA. […]

In a further experiment the target is T3, MDA-MB-468 (Homo sapiens, UniProt Q9UM47).
T3 construct: endogenous Notch3 expressing cell lines, HCC2429 and MDA-MB-468; endogenous in cells; host or cells: MDA-MB-468
T3 sequence (Q9UM47 40-2321): as above
The experiment in a line: Flow cytometry (FACS) binding, MDA-MB-468. The conditions noted are these: 4 μg/mL antibody. The procedure: Unconjugated anti-Notch3 antibodies, hu28 and hu75, were examined for cell surface binding activity to Notch3 expressing cell lines by flow cytometry. Fluorescence activated cell sorting (FACS) analysis was conducted according to standard procedures. Cells were rinsed in HBSS with calcium chloride and magnesium chloride (herein termed HBSS++), harvested using trypsin without EDTA and neutralized with medium containing FBS. Cells were incubated on ice for 30 minutes with 4 μg/mL anti-Notch3 antibodies, hu28 and hu75, in HBSS++containing 3% HICS (heat-inactivated calf serum). Cells were washed three times with cold HBSS++, 3% HICS buffer. Cells were incubated in allophycocyanin-conjugated AffiniPure F(ab′)2 fragment goat anti-human IgG, Fc fragment secondary antibody (Jackson ImmunoResearch Laboratories, Inc., West Grove, Pa.) at 10 μg/mL for 30 minutes on ice in the dark. Cells were washed once with cold HBSS++/3% HICS buffer. Cells were resuspended in HBSS-++/3% HICS, 25 mM HEPES, 1 mM MgCl2 and 25 μg/ml DNaseI. 7-AAD (7-Amino-Actinomycin D) was added for exclusion of nonviable cells. Live cells were analyzed on a BD FACSCalibur flow cytometer (BD Biosciences, San Jose, Calif.). Mean fluorescence intensity (MFI) from channel FL-4 was calculated with FlowJo flow cytometry analysis software (Ashland, Oreg.).
(In general: Flow cytometry measures light scatter and fluorescence of single cells or particles in a stream.)

Experiment [3] deals with Site 2 (S2)-cleavage of the Notch3 receptor in HCC2429 and MDA-MB-468 cells. The experiment in a line: S2-cleavage assay (western blot, D11B8). The conditions noted are these: 5 μg/ml, 24 hours; FIG. 9. Format: cell-based, human. The procedure:
To confirm that binding of anti-Notch3 antibody hu75, but not hu28, to the NRR domain of Notch3 is accompanied by a decrease in S2-cleavage, western blot analysis was performed. The rabbit monoclonal anti-Notch3 antibody D11B8 (Cell Signaling Technologies) recognizes the Notch3 C-terminal fragments that are products of S1 and S2 proteolytic cleavage events. […] The anti-Notch3 antibody hu28 bound to LNR-C and HD1 domains that are located on a linear, covalently linked region of the NRR domain that is N-terminal to the S1-site. An inhibitory antibody is expected to decrease the detection of S2-cleaved Notch3 by stabilizing the NRR domain in an auto-inhibitory conformation thus preventing S2-cleavage, while a non-inhibitory antibody is not expected to have an effect on S2-cleavage.
Site 2 (S2)-cleavage of the Notch3 receptor was assessed by western blot analysis of the protein using the D11B8 (Cell Signaling Technologies) antibody which recognizes an epitope surrounding Glu2312 in the C-terminal domain. HCC2429 and MDA-MB-468 breast cancer cells were used to examine the effects of inhibitory anti-Notch3 antibody hu75 and non-inhibitory anti-Notch3 antibody hu28 on S2-cleavage. For the assay, 1-2.5×10^6 cells were plated in complete growth medium. […] Notch3 was detected with D11B8 antibody and, as a loading control, anti-GAPDH (Sigma) using standard western blot procedures.
(In general: A western blot detects proteins with antibodies after separation by electrophoresis.)

B1: hu28 VH1.0/VL1.0: humanized r28 variant VH1.0/VL1.0, anti-Notch3 antibody (VH SEQ ID NO: 13, VL SEQ ID NO: 25) (antibody, V domains shown)
VH: EVQLVESGGGLVQPGGSLRLSCAASGFTFRDYGMTWVRQAPGKGLEWVAYISSGSNYIYYAEAVKGRFTISRDNAKNSLYLQMNSLRAEDTAVYYCARRGPFVLDAWGQGTLVTVSS
VL: DIQMTQSPSSLSASVGDRVTITCKASQSINRYLHWYQQKPGKAPKLLIYNANGLQTGVPSRFSGSGSGTDFTLTISSLQPEDFATYYCLQHNTWPDTFGGGTKVEIK
As a reminder, the EC50 is the concentration giving half of the maximal effect. High values mean weaker potency, low ones greater potency. Consider B1, for which the EC50 is 0.46 nM in experiment [1]; 0.3 nM and 0.26 nM in experiment [2]. Besides, the MFI with MDA-MB-468 came to 557. Moreover, the “detection of S1- and S2-cleaved Notch3 C-terminal fragments” value in experiment [3] is “both S1- and S2-cleaved Notch3 C-terminal fragments were detected”.
